Laboratory results taken from patent US20240376454A1 (CORNELL UNIVERSITY, published 2024).

What was measured:
Pfu Cas3 HD V187E = target: T1, Pfu Cas3 HD V187E (Pyrococcus furiosus, UniProt Q8U336 1-237, limits assumed); assay: Strep-tag pull-down, SDS-PAGE
T1 construct: The pull-down method speaks of an 'untagged Pfu Cas3 complex'; also called Cas3 V187E
T1 sequence 1: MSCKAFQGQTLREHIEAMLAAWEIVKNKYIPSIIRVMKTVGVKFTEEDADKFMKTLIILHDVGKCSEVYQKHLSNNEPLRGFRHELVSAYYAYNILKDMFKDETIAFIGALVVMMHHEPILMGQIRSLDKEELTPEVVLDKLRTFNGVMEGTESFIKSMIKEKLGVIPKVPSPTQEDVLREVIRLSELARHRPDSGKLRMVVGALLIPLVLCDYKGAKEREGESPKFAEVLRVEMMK
T1 sequence 2: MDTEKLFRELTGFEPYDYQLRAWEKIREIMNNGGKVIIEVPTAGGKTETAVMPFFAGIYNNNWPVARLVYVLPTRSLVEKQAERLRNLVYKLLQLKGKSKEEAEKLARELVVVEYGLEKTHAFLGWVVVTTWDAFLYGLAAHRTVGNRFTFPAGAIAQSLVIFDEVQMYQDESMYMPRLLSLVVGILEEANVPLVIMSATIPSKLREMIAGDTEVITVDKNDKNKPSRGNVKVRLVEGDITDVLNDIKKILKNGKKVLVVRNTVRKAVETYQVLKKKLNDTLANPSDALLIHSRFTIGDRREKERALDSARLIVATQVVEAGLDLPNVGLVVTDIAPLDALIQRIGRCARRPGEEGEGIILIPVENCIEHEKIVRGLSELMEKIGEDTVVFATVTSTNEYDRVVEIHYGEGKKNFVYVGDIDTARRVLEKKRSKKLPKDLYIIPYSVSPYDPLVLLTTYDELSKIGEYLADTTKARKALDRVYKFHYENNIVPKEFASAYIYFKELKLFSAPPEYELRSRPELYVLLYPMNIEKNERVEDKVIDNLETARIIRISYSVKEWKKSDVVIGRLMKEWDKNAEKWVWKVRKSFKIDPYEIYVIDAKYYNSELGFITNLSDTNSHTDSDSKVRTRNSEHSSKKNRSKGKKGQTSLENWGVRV
Description: (§1) Binding of Pfu Cas3 effectively eliminates the severe domain movements in Cas8a NTD, and rigidifies the rest of the inner belly subunits in place (FIG. 3A-B). The lockdown effect is achieved through an extensive Cas3-Cas8a interface that spans across the NTD and CTD of Cas8a, which prevents the hinge motion in between the two domains. […] To validate structural observations, we mutagenized three conserved interface residues on Cas3 individually and in combination, two from the HD nuclease (V187E, L139A) and one from the helicase subunit (V418A). In Strep-tag pull-down experiments, each mutation reduced the affinity between Cas3 and Cascade, albeit to various extents. In particular, Cas3 HD V187E and HD L139A/HEL V418A completely disrupted Cas3 interaction with Cascade (FIG. 19). Thus, in embodiments, any Cas3 sequence that is at least 85% similar to a Pfu Cas3 may retain the described wild type amino acids.
(§2) 15 μg of strep-tagged Pfu Cascade and 15 μg of untagged Pfu Cas3 complex were mixed and incubated with 10 μL of strep resin at 4° C. for 30 min in a binding buffer (50 mM HEPES pH7.5, 10% glycerol, 300 mM NaCl), in a total assay volume of 50 μL. […]

[1] = target: T2, Pfu Cas3 HD L139A/HEL V418A (Pyrococcus furiosus, UniProt Q8U336 1-237, limits assumed); assay: Strep-tag pull-down, SDS-PAGE
T2 construct: tags as for m8
T2 sequence 1: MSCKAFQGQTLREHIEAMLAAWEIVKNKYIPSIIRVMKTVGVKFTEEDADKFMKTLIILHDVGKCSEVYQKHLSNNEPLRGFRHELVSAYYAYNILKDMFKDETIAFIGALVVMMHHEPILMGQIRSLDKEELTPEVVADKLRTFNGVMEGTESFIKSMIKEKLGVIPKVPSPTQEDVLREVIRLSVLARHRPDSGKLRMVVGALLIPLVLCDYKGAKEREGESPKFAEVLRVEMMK
T2 sequence 2: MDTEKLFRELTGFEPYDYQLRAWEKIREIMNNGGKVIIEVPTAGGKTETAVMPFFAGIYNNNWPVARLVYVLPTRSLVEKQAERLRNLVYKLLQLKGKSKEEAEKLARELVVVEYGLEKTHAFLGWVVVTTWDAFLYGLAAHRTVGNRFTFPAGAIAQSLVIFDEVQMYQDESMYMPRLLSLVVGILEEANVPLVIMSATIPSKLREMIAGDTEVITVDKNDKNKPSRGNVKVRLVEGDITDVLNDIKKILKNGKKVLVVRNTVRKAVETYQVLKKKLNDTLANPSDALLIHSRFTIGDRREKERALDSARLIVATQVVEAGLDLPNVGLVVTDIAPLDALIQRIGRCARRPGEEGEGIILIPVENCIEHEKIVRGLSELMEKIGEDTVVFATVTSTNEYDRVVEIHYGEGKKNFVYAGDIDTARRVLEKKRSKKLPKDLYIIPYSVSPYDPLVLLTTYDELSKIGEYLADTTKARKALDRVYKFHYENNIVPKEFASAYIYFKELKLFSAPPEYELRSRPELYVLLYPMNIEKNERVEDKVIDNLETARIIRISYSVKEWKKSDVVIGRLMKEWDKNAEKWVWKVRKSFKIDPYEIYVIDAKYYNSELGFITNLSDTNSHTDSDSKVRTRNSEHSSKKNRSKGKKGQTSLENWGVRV
Description: as §1, §2

B1: Pfu Cascade (other)
chain 1: not shown
chain 2: MDILLVCLRFPFFSVAKRSYQVRTSFLLPPPSALKGALAKGLILLKPEKYASSSLDEAALKAIKEIESKLVDIKAVSVAPLSPLIRNAFLLKRLRNLESGSNAEKSDAMRREYTFTRELLVAYIFKNLTQEEKNLYLKAAMLIDVIGDTESLATPVWASFVKPEDKKAPLAFSAPYTEIYSLLSSKIQAKGKIRMYIEKMRVSPEYSKTKGPQEEIFYLPIEERRYKRIVYYARTIYPPEVEKALTVDGEVLGIWIPKNSSESGSHHHHHHH
chain 3: MMYVRISGRIRLNAHSLNAQGGGGTNYIEITKTKVTVRTENGWTVVEVPAITGNMLKHWHFVGFVDYFKTTPYGVNLTERALRYNGTRFGQGETTATKANGATVQLNDEATIIKELADADVHGFLAPKTGRRRVSLVKASFILPTEDFIKEVEGERLITAIKHNRVDVDEKGAIGSSKEGTAQMLFSREYATGLYGFSIVLDLGLVGIPQGLPVKFEENQPRPNIVIDPNERKARIESALKALIPMLSGYIGANLARSFPVFKVEELVAIASEGPIPALVHGFYEDYIEANRSIIKNARALGFNIEVFTYNVDLGEDIEATKVSSVEELVANLVKMVGGKE
chain 4: MGGWIRNIGRYLSYLVDDTFEEYAYDVVDGIAKARTQEELLEGVYKALRLAPKLKKKAESKGCPPPRIPSPEDIEALEEKVEQLSNPKDLRKLAVSLALWAFASWNNCPKKGKGTEGGVE
notes: Ribonucleoprotein complex that also holds the chimeric crRNA (Pfu 5'-handle, E. coli 3'-handle); also called I-A Pfu Cascade; apo Pfu Cascade
Pfu Cas3 HD V187E
  binding result: no binding
[1]
  binding result: no binding
